Test results: patent publication US20200108125A1

Molecular target: TrkB (mouse) (UniProt P15209)
Assay: cell-based or functional assay

Chain of UniProt P15209 (P15209 32-821): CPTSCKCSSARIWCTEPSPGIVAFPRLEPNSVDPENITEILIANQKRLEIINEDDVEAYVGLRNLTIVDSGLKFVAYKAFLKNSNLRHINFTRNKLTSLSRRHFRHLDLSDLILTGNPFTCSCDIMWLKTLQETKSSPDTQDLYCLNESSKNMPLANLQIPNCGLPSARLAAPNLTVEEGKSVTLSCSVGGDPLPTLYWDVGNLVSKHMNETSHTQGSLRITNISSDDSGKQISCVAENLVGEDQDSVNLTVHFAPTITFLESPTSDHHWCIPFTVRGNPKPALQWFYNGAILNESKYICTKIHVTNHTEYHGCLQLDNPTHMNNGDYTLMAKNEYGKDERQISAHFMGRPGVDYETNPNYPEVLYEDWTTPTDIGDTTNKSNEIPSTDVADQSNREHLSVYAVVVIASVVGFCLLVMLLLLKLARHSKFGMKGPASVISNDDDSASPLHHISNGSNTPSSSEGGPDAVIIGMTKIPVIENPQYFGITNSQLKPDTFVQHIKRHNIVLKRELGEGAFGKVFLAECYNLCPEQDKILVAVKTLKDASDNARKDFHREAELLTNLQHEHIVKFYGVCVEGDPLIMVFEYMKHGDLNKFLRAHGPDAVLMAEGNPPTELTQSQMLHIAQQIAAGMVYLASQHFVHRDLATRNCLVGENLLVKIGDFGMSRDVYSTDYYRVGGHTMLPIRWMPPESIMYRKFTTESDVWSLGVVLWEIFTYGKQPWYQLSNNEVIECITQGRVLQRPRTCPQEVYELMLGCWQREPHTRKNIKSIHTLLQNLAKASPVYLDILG

Fndc5 gene expression (qPCR) in primary cortical neurons stimulated overnight with BDNF (0.1-100 ng/ml); lowest concentration with a significant reduction: 1 ng/mL
Substance: Recombinant human BDNF (from UniProt P23560 129-247) (ligand)
